# Reference: publication PMC10783490, “Biochemical and cellular insights into the Baz2B protein, a non-catalytic subunit of the chromatin remodeling complex” (Nucleic Acids Research, 2023)
# T1: BRD^Baz2B L2127V (human, UniProt Q9UIF8 2054-2168, L2127V, fluorescent label (Monolith NT Protein Labelling Kit RED-NHS))
# T1 construct: bromodomain (BRD) of human Baz2B with a cancer-associated point mutation, made on pNIC28-Bsa4-BAZ2B-BRD; Same limits as m1; mutation found in breast cancer; source: E. coli BL21(DE3)-R3-pRARE2, purified (Ni-NTA, Sephadex 75)
# T1 sequence: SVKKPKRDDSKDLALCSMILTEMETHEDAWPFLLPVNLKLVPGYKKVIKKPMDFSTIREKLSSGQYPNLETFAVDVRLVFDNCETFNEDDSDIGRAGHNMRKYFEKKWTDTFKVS
# T2: His6-BRD^Baz2B (bromodomain of human Baz2B, wild-type) (human, UniProt Q9UIF8 2054-2168, fluorescent label (Monolith NT Protein Labelling Kit RED-NHS))
# T2 construct: bromodomain (BRD) of human Baz2B, from plasmid pNIC28-Bsa4-BAZ2B-BRD; also called BAZ2B-BRD; source: E. coli BL21(DE3)-R3-pRARE2, purified (Ni-NTA, Sephadex 75)
# T2 sequence: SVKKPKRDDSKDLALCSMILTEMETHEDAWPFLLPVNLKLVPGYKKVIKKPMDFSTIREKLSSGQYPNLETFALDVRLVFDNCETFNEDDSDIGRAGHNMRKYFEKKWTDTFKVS
# T3: BRD^Baz2B K2098N (human, UniProt Q9UIF8 2054-2168, K2098N, fluorescent label (Monolith NT Protein Labelling Kit RED-NHS))
# T3 construct: bromodomain (BRD) of human Baz2B with a cancer-associated point mutation, made on pNIC28-Bsa4-BAZ2B-BRD; Same limits as m1; mutation found in multiple myeloma; source: E. coli BL21(DE3)-R3-pRARE2, purified (Ni-NTA, Sephadex 75)
# T3 sequence: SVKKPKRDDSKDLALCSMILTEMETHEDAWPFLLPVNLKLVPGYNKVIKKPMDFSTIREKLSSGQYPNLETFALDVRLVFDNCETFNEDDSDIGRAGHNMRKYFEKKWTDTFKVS
# T4: BRD^Baz2B F2139C (human, UniProt Q9UIF8 2054-2168, F2139C, fluorescent label (Monolith NT Protein Labelling Kit RED-NHS))
# T4 construct: bromodomain (BRD) of human Baz2B with a cancer-associated point mutation, made on pNIC28-Bsa4-BAZ2B-BRD; Same limits as m1; mutation found in endometrial cancer; source: E. coli BL21(DE3)-R3-pRARE2, purified (Ni-NTA, Sephadex 75)
# T4 sequence: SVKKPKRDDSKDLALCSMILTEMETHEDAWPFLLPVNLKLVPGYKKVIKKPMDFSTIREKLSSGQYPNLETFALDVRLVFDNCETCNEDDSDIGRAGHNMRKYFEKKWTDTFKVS
# T5: BRD^Baz2B T2138I (human, UniProt Q9UIF8 2054-2168, T2138I, fluorescent label (Monolith NT Protein Labelling Kit RED-NHS))
# T5 construct: bromodomain (BRD) of human Baz2B with a cancer-associated point mutation, made on pNIC28-Bsa4-BAZ2B-BRD; Same limits as m1; mutation found in multiple myeloma; source: E. coli BL21(DE3)-R3-pRARE2, purified (Ni-NTA, Sephadex 75)
# T5 sequence: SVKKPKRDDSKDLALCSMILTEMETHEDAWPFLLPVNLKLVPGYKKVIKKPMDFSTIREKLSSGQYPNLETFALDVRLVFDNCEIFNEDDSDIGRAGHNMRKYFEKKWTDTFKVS
# T6: BRD^Baz2B D2143N (human, UniProt Q9UIF8 2054-2168, D2143N, fluorescent label (Monolith NT Protein Labelling Kit RED-NHS))
# T6 construct: bromodomain (BRD) of human Baz2B with a cancer-associated point mutation, made on pNIC28-Bsa4-BAZ2B-BRD; Same limits as m1; mutation found in breast invasive carcinoma; source: E. coli BL21(DE3)-R3-pRARE2, purified (Ni-NTA, Sephadex 75)
# T6 sequence: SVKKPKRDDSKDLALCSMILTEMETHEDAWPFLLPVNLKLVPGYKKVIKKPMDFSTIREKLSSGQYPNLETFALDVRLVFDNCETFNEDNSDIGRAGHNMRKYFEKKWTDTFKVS
# T7: BRD^Baz2B L2073V (human, UniProt Q9UIF8 2054-2168, L2073V, fluorescent label (Monolith NT Protein Labelling Kit RED-NHS))
# T7 construct: bromodomain (BRD) of human Baz2B with a cancer-associated point mutation, made on pNIC28-Bsa4-BAZ2B-BRD; Same limits as m1; mutation found in pancreatic cancer (COSMIC/ICGC); source: E. coli BL21(DE3)-R3-pRARE2, purified (Ni-NTA, Sephadex 75)
# T7 sequence: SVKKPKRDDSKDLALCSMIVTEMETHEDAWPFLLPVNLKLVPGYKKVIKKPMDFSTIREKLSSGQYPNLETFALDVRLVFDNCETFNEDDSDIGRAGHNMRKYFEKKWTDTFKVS
# T8: TAM-AT1-AT2 Baz2B (Homo sapiens, UniProt Q9UIF8 721-884)
# T8 sequence: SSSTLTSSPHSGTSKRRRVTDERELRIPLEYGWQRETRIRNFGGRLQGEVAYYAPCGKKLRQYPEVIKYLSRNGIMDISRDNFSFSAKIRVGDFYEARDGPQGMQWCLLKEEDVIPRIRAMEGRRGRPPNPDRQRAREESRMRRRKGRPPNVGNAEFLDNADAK
# Key:
# BRD^Baz2B L2127V = biological target: T1, BRD^Baz2B L2127V; assay: MST; 100 nM fluorescently labelled (RED-NHS) BRD^Baz2B, peptide (H3 or H3K14ac) titrated; MST buffer 150 mM Tris-HCl, 50 mM NaCl, 10 mM MgCl2, pH 7.6, 0.0025% Pluronic, 200 ng/ul BSA; 25 C, 20% MST power; at least triplicate; conditions: both partners purified
# [1] = biological target: T2, His6-BRD^Baz2B (bromodomain of human …); assay: as above; conditions: both partners purified
# BRD^Baz2B K2098N = biological target: T3, BRD^Baz2B K2098N; assay: as above; conditions: both partners purified
# BRD^Baz2B F2139C = biological target: T4, BRD^Baz2B F2139C; assay: as above; conditions: both partners purified
# BRD^Baz2B T2138I = biological target: T5, BRD^Baz2B T2138I; assay: as above; conditions: both partners purified
# BRD^Baz2B D2143N = biological target: T6, BRD^Baz2B D2143N; assay: as above; conditions: both partners purified
# BRD^Baz2B L2073V = biological target: T7, BRD^Baz2B L2073V; assay: as above; conditions: both partners purified
# TAM-AT1-AT2 Baz2B [2] = biological target: T8, TAM-AT1-AT2 Baz2B; assay: MST; EMSA: 20 mM HEPES pH 7.5, 30 mM KCl, 1 mM EDTA, 10 mM (NH4)2SO4, 1 mM DTT, 4 C, 10 nM probe; MST: same plus 0.1 ug/ml BSA, 5 nM probe, 25 C; GST-AT-hook and bromodomain EMSA as in cited refs; conditions: protein: recombinant; tags: His6; label: 5' Cy5
# TAM-AT1-AT2 Baz2B [3] = biological target: T8, TAM-AT1-AT2 Baz2B; assay: EMSA; EMSA: 20 mM HEPES pH 7.5, 30 mM KCl, 1 mM EDTA, 10 mM (NH4)2SO4, 1 mM DTT, 4 C, 10 nM probe; MST: same plus 0.1 ug/ml BSA, 5 nM probe, 25 C; GST-AT-hook and bromodomain EMSA as in cited refs; conditions: protein: recombinant; tags: His6; label: 5' Cy5
Binder,Kd (BRD^Baz2B L2127V) [µM],Kd [1] [µM],Kd (BRD^Baz2B K2098N) [µM],Kd (BRD^Baz2B F2139C) [µM],Kd (BRD^Baz2B T2138I) [µM],Kd (BRD^Baz2B D2143N) [µM],Kd (BRD^Baz2B L2073V) [µM],Kd (TAM-AT1-AT2 Baz2B [2]) [µM],Kd (TAM-AT1-AT2 Baz2B [3]) [µM]
"Ac-TARKSTGGK(Ac)APRKQL-NH2 (N-terminal tail of histone H3, residues 6-20; also called acetylated H3 tail peptide; acetylated at K14 (K14ac) N-terminal H3 histone tail peptide; source: synthetic peptide, bought: alta Bioscience) [H3K14ac peptide (Ac-TARKSTGGK(ac)APRKQL-NH2)]",30,16,24,20,94,133,78,–,–
GGGGGGUCAUUUUUGGGGAAACCCUGUCUCUUUCC (structured_RNA) [pRNAmini],–,–,–,–,–,–,–,0.288,0.137
